# Experimental data from patent US20220306759A1 (CYTOMX THERAPEUTICS, published 2022).
# Numbering of substitutions follows the chain as printed. Read-outs that look alike come from different tables or passages of the source.
# B1: anti-human CD71 TF01-2001 activatable antibody (antibody, human IgG1, kappa)
# heavy: not shown
# light: QGQSGQGQFCPWSYYLIGDCDIGGGSSGGSISSGLLSGRSDNHGGGSDIQMTQSPSSLSASVGDRVTITCSASSSVYYMYWFQQKPGKAPKLWIYSTSNLASGVPSRFSGSGSGTDYTLTISSMQPEDFATYYCQQRRNYPYTFGQGTKLEIKRTVAAPSVFIFPPSDEQLKSGTASVVCLLNNFYPREAKVQWKVDNALQSGNSQESVTEQDSKDSTYSLSSTLTLSKADYEKHKVYACEVTHQGLSSPVTKSFNRGEC
# notes: also called huCD71 TF01-2001
# B2: anti-human CD71 Ab21.12-Duoc (antibody, human IgG1, kappa)
# heavy: not shown
# light: DIQMTQSPSSLSASVGDRVTITCSASSSVYYMYWFQQKPGKAPKLWIYSTSNLASGVPSRFSGSGSGTDYTLTISSMQPEDFATYYCQQRRNYPYTFGQGTKLEIKRTVAAPSVFIFPPSDEQLKSGTASVVCLLNNFYPREAKVQWKVDNALQSGNSQESVTEQDSKDSTYSLSSTLTLSKADYEKHKVYACEVTHQGLSSPVTKSFNRGEC
# modifications: duocarmycin conjugated to the antibody; chain and residues not stated
# notes: antibody drug conjugate of Ab21.12; also called anti-human CD71 antibody conjugated to duocarmycin
# B3: CD71 Ab 21.12-vc-MMAE (antibody, human IgG1, kappa)
# heavy: not shown
# light: B2 light
# modifications: vc-MMAE conjugated to the antibody; chain and residues not stated
# notes: antibody drug conjugate of Ab21.12
# B4: anti-CD71 M21 monoclonal antibody (antibody, V domains shown)
# VH: EVQLQESGTVLARPGASVKMSCKASGYTFTSYWMHWVKQRPGQGLEWIGAIYPGNSETGYNQNFKGKAKLTAVTSASTAYMDLSSLTNEDSAVYYCTRENWDPGFAFWGQGTLITVSA
# VL: DIVMTQTPAIMSASPGEKVTITCSASSSVYYMYWFQQKPGTSPKLWIYSTSNLASGVPVRFSGSGSGTSYSLTISRMEAEDAATYYCQQRRNYPYTFGGGTKLEIKR
# notes: mouse monoclonal antibody from hybridoma; also called muM21; Mab21
# B5: anti-human CD71 TF02.13-2001 activatable antibody (antibody, human IgG1, kappa)
# heavy: not shown
# light: QGQSGQGNLCTEHSAALDCRSYGGGSSGGSISSGLLSGRSDNHGGGSDIQMTQSPSSLSASVGDRVTITCSASSSVYYMYWFQQKPGKAPKLWIYSTSNLASGVPSRFSGSGSGTDYTLTISSMQPEDFATYYCQQRRNYPYTFGQGTKLEIKRTVAAPSVFIFPPSDEQLKSGTASVVCLLNNFYPREAKVQWKVDNALQSGNSQESVTEQDSKDSTYSLSSTLTLSKADYEKHKVYACEVTHQGLSSPVTKSFNRGEC
# B6: anti-human CD71 TF02-2001 activatable antibody (antibody, human IgG1, kappa)
# heavy: not shown
# light: B5 light with A15F
# B7: Ab21.10 LcB:HcA (antibody, V domains shown)
# VH: QVQLVQSGAEVKKPGASVKVSCKASGYTFTSYWMHWVRQAPGQGLEWMGAIYPGNSETGYAQKFQGRVTMTRDTSTSTVYMELSSLRSEDTAVYYCARENWDPGFAFWGQGTLVTVSS
# VL: DIQMTQSPSSLSASVGDRVTITCSASSSVYYMYWFQQKPGKAPKLWIYSTSNLASGVPSRFSGSGSGTDYTLTISSMQPEDFATYYCQQRRNYPYTFGQGTKLEIK
# notes: humanized; detected with anti-human IgG; also called huCD71 Ab21.10
# B8: anti-CD71 Fab fragment (papain digest of anti-CD71 21.12) (Fab, V domains shown)
# VH: B7 VH with V20M, M48I, V68A, M70L, R72A, V79A, A97T, V114I
# VL: DIQMTQSPSSLSASVGDRVTITCSASSSVYYMYWFQQKPGKAPKLWIYSTSNLASGVPSRFSGSGSGTDYTLTISSMQPEDFATYYCQQRRNYPYTFGQGTKLEIKR
# B9: anti-human CD71 TF02.13-3001 activatable antibody (antibody, human IgG1, kappa)
# heavy: not shown
# light: QGQSGQGNLCTEHSAALDCRSYGGGSSGGSAVGLLAPPGGLSGRSDNHGGSDIQMTQSPSSLSASVGDRVTITCSASSSVYYMYWFQQKPGKAPKLWIYSTSNLASGVPSRFSGSGSGTDYTLTISSMQPEDFATYYCQQRRNYPYTFGQGTKLEIKRTVAAPSVFIFPPSDEQLKSGTASVVCLLNNFYPREAKVQWKVDNALQSGNSQESVTEQDSKDSTYSLSSTLTLSKADYEKHKVYACEVTHQGLSSPVTKSFNRGEC
# notes: also called CD71-ActAb 1
# B10: CD71 TF02.13-3001-spdb-DM4 (antibody, human IgG1, kappa)
# heavy: not shown
# light: B9 light
# modifications: spdb-DM4 conjugated to the antibody; chain and residues not stated
# B11: anti-human CD71 TF02.18-2001 activatable antibody (antibody, human IgG1, kappa)
# heavy: not shown
# light: QGQSGQGCTEHSFALDCGGGSSGGSISSGLLSGRSDNHGGGSDIQMTQSPSSLSASVGDRVTITCSASSSVYYMYWFQQKPGKAPKLWIYSTSNLASGVPSRFSGSGSGTDYTLTISSMQPEDFATYYCQQRRNYPYTFGQGTKLEIKRTVAAPSVFIFPPSDEQLKSGTASVVCLLNNFYPREAKVQWKVDNALQSGNSQESVTEQDSKDSTYSLSSTLTLSKADYEKHKVYACEVTHQGLSSPVTKSFNRGEC
# notes: also called CD71-ActAb 2
# Assays:
# [1] = target: T1, recombinant human CD71 protein (human, UniProt P02786 89-760); experiment: ELISA; Kd against CD71 21.12
# T1 construct: also called recombinant CD71
# Experimental: (§1) The amount of bound antibody was detected by incubation and detection by goat anti-human antibody conjugated to horseradish peroxidase and Ultra TMB (Thermo Fisher Scientific) detection.
# [2] = target: T1, recombinant human CD71 protein; experiment: ELISA, 1 µg/mL CD71, uncleaved
# Experimental: as §1
# [3] = target: T2, human CD71 (transferrin receptor protein 1, TfR1) on human cell lines (human, UniProt P02786 1-760); experiment: FACS on DMS 79 cells
# T2 construct: whole, on cells; also called huCD71
# Experimental: (§2) In this study, the binding of the antibodies and ADCs of the present disclosure to the indicated cell lines were performed using a standard FACS labelling method.
# [4] = target: T2, human CD71 (transferrin receptor …); experiment: FACS on DMS 153 cells
# Experimental: as §2
# [5] = target: T2, human CD71 (transferrin receptor …); experiment: FACS on H292 cells
# Experimental: (§3) In this study, the binding of the antibodies of the present disclosure to the indicated cell lines were performed using a standard FACS labelling method.
# [6] = target: T2, human CD71 (transferrin receptor …); experiment: FACS on HCC1806 cells
# Experimental: as §3
# [7] = target: T2, human CD71 (transferrin receptor …); experiment: FACS on BxPC3 cells
# [8] = target: T1, recombinant human CD71 protein; experiment: ELISA, 1 µg/mL CD71 on nickel plates, not activated
# Experimental: as §1
# [9] = target: T1, recombinant human CD71 protein; experiment: ELISA; Kd against CD71 21.12; remark: listed apart in the source
# Experimental: as §1
# [10] = target: T2, human CD71 (transferrin receptor …); experiment: FACS on H292 cells, uncleaved
# Experimental: In this study, the binding of the antibodies of the present disclosure to the indicated cell lines were performed using a standard FACS labelling method. […] These activatable antibodies include the light chain of the correspondingly named sequence listed above in Table C. The cells were labeled with the indicated test article at the indicated concentrations and subsequently detected with an Alexa Fluor 647 labeled goat anti-human IgG secondary antibody.
# [11] = target: T1, recombinant human CD71 protein; experiment: ELISA, 1 µg/mL recombinant human CD71, uncleaved
# Experimental: as §1
# Human CD71-His6 = target: T3, Human CD71-His6 (human, UniProt P02786 89-760, limits assumed); experiment: BLI (Octet), CD71-His6 on Ni-NTA, Fab in solution
# T3 construct: immobilized on Ni-NTA substrate (Octet); also called recombinant human CD71 protein with hexa-histidine tag
# From the text: (§4) The recombinant CD71 proteins included a hexa-histidine (His6) peptide tag, by which the protein was immobilized to a Ni-NTA (nitrilotriacetic acid)-containing substrate.
# Cyno CD71-His6 = target: T4, Cyno CD71-His6 (cynomolgus monkey, UniProt H9EXL1 89-760 (rhesus entry)); experiment: BLI (Octet), CD71-His6 on Ni-NTA, Fab in solution
# T4 construct: immobilized on Ni-NTA substrate (Octet); also called recombinant cynomolgus CD71 protein with hexa-histidine tag
# From the text: as §4
# [12] = target: T2, human CD71 (transferrin receptor …); experiment: FACS on MDA MB 231 cells, uncleaved
# Experimental: as §3
# [13] = target: T2, human CD71 (transferrin receptor …); experiment: FACS on HT29 cells, uncleaved
# Experimental: as §3
# [14] = target: T2, human CD71 (transferrin receptor …); experiment: FACS on HT29 cells; Kd against CD71-Ab
# Experimental: as §3
# [15] = target: T2, human CD71 (transferrin receptor …); experiment: FACS on BxPC3 cells; Kd against CD71-Ab
# Experimental: as §3
# [16] = target: T2, human CD71 (transferrin receptor …); experiment: FACS on FaDu cells, uncleaved
# Experimental: as §3
# [17] = target: T2, human CD71 (transferrin receptor …); experiment: FACS on FaDu cells; Kd against CD71-Ab
# Experimental: as §3
# [18] = target: T2, human CD71 (transferrin receptor …); experiment: FACS on BxPC3 cells, uncleaved
# Experimental: as §3
# [19] = target: T2, human CD71 (transferrin receptor …); experiment: FACS on MDA MB 231 cells; Kd against CD71-Ab
# Experimental: as §3
# [20] = target: T2, human CD71 (transferrin receptor …); experiment: FACS on MDA MB 231 cells
# Experimental: as §3
# T2 sequence (P02786 whole entry): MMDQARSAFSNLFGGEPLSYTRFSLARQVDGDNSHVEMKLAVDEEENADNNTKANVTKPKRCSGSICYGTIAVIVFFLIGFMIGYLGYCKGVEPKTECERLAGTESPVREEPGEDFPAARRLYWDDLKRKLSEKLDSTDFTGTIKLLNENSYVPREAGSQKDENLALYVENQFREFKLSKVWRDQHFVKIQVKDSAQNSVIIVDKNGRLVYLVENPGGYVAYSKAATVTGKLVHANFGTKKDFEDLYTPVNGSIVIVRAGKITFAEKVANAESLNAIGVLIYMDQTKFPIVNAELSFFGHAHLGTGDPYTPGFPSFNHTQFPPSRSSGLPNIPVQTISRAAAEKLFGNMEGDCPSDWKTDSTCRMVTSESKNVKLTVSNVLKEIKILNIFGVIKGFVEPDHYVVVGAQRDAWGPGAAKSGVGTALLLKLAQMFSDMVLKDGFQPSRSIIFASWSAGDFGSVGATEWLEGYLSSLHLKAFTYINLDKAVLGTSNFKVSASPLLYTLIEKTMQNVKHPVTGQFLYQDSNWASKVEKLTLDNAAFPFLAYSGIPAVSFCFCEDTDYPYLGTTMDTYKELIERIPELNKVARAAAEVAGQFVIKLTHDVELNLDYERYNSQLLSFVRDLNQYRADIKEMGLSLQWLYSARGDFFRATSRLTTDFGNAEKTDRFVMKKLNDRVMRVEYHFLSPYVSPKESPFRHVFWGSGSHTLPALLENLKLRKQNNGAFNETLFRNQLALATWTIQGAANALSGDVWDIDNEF
# T4 sequence (chain, as listed by the source): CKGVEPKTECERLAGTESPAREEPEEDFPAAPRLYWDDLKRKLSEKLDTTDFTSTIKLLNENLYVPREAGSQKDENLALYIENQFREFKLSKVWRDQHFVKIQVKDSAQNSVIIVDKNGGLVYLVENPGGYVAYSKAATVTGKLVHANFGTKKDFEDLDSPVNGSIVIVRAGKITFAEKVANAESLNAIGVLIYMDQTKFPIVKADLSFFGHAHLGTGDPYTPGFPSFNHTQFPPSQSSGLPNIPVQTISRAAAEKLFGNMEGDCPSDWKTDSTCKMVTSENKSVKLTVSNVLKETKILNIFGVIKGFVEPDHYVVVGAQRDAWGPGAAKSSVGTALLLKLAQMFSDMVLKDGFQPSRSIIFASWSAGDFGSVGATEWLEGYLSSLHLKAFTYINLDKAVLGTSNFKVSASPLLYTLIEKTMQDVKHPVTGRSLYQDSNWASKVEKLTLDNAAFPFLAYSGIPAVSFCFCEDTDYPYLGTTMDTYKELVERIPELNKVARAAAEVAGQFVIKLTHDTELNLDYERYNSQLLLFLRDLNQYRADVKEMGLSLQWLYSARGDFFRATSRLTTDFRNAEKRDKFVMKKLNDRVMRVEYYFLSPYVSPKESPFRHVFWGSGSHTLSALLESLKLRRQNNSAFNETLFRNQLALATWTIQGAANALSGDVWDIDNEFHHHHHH
# T3 sequence (P02786 other isoform, or with tags, fused parts or gaps limits assumed): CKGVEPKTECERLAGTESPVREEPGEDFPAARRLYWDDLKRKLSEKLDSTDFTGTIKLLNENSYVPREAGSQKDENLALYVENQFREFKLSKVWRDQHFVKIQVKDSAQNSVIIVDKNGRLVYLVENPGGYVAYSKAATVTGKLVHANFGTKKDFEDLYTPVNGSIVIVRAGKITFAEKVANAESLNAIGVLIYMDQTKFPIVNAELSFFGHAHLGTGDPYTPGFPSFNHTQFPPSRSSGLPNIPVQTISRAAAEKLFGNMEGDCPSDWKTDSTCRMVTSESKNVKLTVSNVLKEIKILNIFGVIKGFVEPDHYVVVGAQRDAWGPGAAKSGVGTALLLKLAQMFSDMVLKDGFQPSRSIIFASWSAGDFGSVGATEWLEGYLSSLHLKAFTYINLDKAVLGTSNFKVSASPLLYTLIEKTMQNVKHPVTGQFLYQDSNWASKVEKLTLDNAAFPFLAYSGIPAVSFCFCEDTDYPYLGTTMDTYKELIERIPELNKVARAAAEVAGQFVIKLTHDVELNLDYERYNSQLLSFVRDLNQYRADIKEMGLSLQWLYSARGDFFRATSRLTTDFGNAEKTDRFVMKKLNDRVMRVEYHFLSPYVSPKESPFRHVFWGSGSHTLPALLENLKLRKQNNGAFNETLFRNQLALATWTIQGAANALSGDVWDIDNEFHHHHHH
# T1 sequence (P02786 89-760 limits assumed): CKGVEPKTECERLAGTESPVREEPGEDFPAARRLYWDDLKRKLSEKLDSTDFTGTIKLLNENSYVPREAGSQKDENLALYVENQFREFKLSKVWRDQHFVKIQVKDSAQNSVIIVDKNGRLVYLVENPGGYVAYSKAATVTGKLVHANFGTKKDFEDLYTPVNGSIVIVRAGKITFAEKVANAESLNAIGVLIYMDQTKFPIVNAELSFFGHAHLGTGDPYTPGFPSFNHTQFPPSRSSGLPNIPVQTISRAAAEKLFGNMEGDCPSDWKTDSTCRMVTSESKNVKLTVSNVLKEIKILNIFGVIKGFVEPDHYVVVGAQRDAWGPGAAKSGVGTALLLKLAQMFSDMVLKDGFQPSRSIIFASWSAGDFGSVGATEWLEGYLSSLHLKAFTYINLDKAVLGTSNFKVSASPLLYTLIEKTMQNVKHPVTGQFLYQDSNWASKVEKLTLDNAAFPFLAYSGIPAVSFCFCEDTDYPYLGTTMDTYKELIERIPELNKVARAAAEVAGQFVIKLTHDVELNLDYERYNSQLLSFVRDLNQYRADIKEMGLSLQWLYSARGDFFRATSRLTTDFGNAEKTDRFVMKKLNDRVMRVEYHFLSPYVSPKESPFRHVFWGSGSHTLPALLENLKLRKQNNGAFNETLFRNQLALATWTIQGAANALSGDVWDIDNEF
binder,measurement,setting,value
B1,ME (masking efficiency),[1],500 fold
same,Kd,[2],70 nM
B2,Kd,[3],1.09 nM
same,Kd,[4],2.3 nM
B3,Bmax (MFI),[5],1600 MFI
same,Kd,[5],1.33 nM
same,Kd,[6],6.4 nM
B4,Kd,[7],~3 nM
B5,Kd,[8],13 nM
same,Bmax (MFI),[5],2210 MFI
same,Kd,[5],92.3 nM
same,ME (masking efficiency),[1],65 fold
same,Kd,[6],~200 nM
same,Kd,[2],9.14 nM
same,ME (masking efficiency),[9],42 fold
same,Kd,[10],27.5 nM
same,Kd,[11],2.53 nM
B6,ME (masking efficiency),[1],153 fold
same,Kd,[2],21.4 nM
B7,binding result,[7],binds
B8,Kd,Human CD71-His6,14 nM
same,koff,Human CD71-His6,0.00398 s⁻¹
same,kon,Human CD71-His6,664000 M⁻¹ s⁻¹
same,Kd,Cyno CD71-His6,6 nM
same,koff,Cyno CD71-His6,0.00559 s⁻¹
same,kon,Cyno CD71-His6,390000 M⁻¹ s⁻¹
B9,Kd,[12],38.8 nM
same,Kd,[13],23 nM
same,ME (masking efficiency),[14],45 fold
same,ME (masking efficiency),[15],43 fold
same,Bmax (MFI),[5],1820 MFI
same,Kd,[5],52.1 nM
same,Kd,[6],~200 nM
same,Kd,[10],10.2 nM
same,Kd,[16],14.7 nM
same,Kd,[11],0.813 nM
same,ME (masking efficiency),[17],38 fold
same,Kd,[18],35.2 nM
same,ME (masking efficiency),[19],46 fold
same,Kd,[20],30.6 nM
B10,Kd,[6],~200 nM
same,Kd,[20],46.9 nM
B11,Kd,[12],32 nM
same,Kd,[13],19.7 nM
same,Kd,[8],3 nM
same,ME (masking efficiency),[14],39 fold
same,ME (masking efficiency),[15],43 fold
same,ME (masking efficiency),[1],11 fold
same,Kd,[2],1.59 nM
same,ME (masking efficiency),[9],9 fold
same,Kd,[16],15.4 nM
same,ME (masking efficiency),[17],39 fold
same,Kd,[18],36.4 nM
same,ME (masking efficiency),[19],38 fold
